Each block holds one binder with its values, some of them ahead of it.
Legend:
[1] = biological target: T1, LILRB1-ECD-HIS (SinoBiological Cat #: 16014-H02H) (human, UniProt Q8NHL6 24-461); test: BLI epitope binning (Gator), monomeric antigen
T1 construct: Bought protein; also called monomeric antigen LILRB1-ECD-HIS; not shown: His tag

[2] = biological target: T2, LILRB2-ECD-HIS (SinoBiological Cat #: 14132-H02H) (human, UniProt Q8N423 22-460); test: BLI epitope binning (Gator), monomeric antigen
T2 construct: Bought protein; also called monomeric antigen LILRB2-ECD-HIS; not shown: His tag

[3] = biological target: T1, LILRB1-ECD-HIS (SinoBiological Cat #: …); test: SPR (Carterra LSA), antibody captured, antigen injected;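 further: kd obtained from kinetic analysis of antibody binding to the antigen, with association and dissociation phases fitted in the instrument software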
[4] = biological target: T2, LILRB2-ECD-HIS (SinoBiological Cat #: …); test: as above
[5] = biological target: T3, human LILRB1 expressed on cells (human, UniProt Q8NHL6 24-650); test: flow cytometry on CHO-LILRB1 cells, non-linear fit of the curves of FIG. 26A
T3 construct: In 293T cells it was expressed from pCMV3-LILRB1-GFP; also called CHO-LILRB1; Jurkat-LILRB1

[6] = biological target: T4, human LILRB2 expressed on cells (human, UniProt Q8N423 22-597); test: flow cytometry, Jurkat-LILRB2 cells; blocked ligand: APC HLA-G monomer tetramer
T4 construct: In 293T cells it was expressed from pCMV3-LILRB2-GFP; also called CHO-LILRB2; Jurkat-LILRB2

[7] = biological target: T3, human LILRB1 expressed on cells; test: flow cytometry, CHO-LILRB1 cells
[8] = biological target: T4, human LILRB2 expressed on cells; test: flow cytometry on CHO-LILRB2 cells, non-linear fit of the curves of FIG. 26B
[9] = biological target: T2, LILRB2-ECD-HIS (SinoBiological Cat #: …); test: BLI (Gator), RB2-ECD-his
[10] = biological target: T3, human LILRB1 expressed on cells; test: flow cytometry on CHO-LILRB1 cells (CHO-RB1), titrated antibody, labelled anti-human Fc, gMFI
[11] = biological target: T5, LILRA3 expressed on 293T cells (UniProt Q8N6C8 24-439, limits assumed); test: flow cytometry on 293T cells transiently expressing LILRA3, APC anti-human Fc; gMFI as fold to IgG staining
T5 construct: whole, on cells; GFP-tagged, transient

[12] = biological target: T6, LILRA5 expressed on 293T cells (UniProt A6NI73 42-299, limits assumed); test: flow cytometry on 293T cells transiently expressing LILRA5, antibody 5 µg/mL, APC anti-human Fc; gMFI as fold to IgG staining
T6 construct: whole, on cells; GFP-tagged, transient

[13] = biological target: T4, human LILRB2 expressed on cells; test: flow cytometry on CHO-LILRB2 cells (CHO-RB2), titrated antibody, labelled anti-human Fc, gMFI
[14] = biological target: T7, LILRA4 expressed on 293T cells (UniProt P59901 24-499, limits assumed); test: flow cytometry on 293T cells transiently expressing LILRA4, APC anti-human Fc; gMFI as fold to IgG staining
T7 construct: whole, on cells; GFP-tagged, transient

[15] = biological target: T4, human LILRB2 expressed on cells; test: flow cytometry, CHO-LILRB2 cells
[16] = biological target: T8, LILRB4 expressed on 293T cells (UniProt Q8NHJ6 22-448, limits assumed); test: flow cytometry on 293T cells transiently expressing LILRB4, APC anti-human Fc; gMFI as fold to IgG staining
T8 construct: whole, on cells; GFP-tagged, transient

[17] = biological target: T1, LILRB1-ECD-HIS (SinoBiological Cat #: …); test: SPR (Carterra), LILRB1-ECD-his
[18] = biological target: T9, LILRB3 expressed on cells (human, UniProt O75022 24-631); test: flow cytometry on 293T cells transiently expressing LILRB3, APC anti-human Fc; gMFI as fold to IgG staining
T9 construct: whole, on cells; Expressed with a GFP tag from the bought plasmid; also called human LILRB3; CHO-LILRB3

[19] = biological target: T10, LILRA2 expressed on 293T cells (UniProt Q8N149 24-483, limits assumed); test: flow cytometry on 293T cells transiently expressing LILRA2, APC anti-human Fc; gMFI as fold to IgG staining
T10 construct: whole, on cells; GFP-tagged, transient

[20] = biological target: T11, LILRA1 expressed on cells (human, UniProt O75019 17-489); test: flow cytometry on CHO-LILRA1 cells, non-linear fit of the curves of FIG. 26E
T11 construct: whole, on cells; GFP-tagged; also called human LILRA1; CHO-LILRA1

[21] = biological target: T12, LILRA6 expressed on cells (human, UniProt Q6PI73 24-481); test: flow cytometry on 293T cells transiently expressing LILRA6, APC anti-human Fc; gMFI as fold to IgG staining
T12 construct: whole, on cells; GFP-tagged; also called human LILRA6; CHO-LILRA6

[22] = biological target: T11, LILRA1 expressed on cells; test: flow cytometry on CHO-LILRA1 cells (CHO-RA1), titrated antibody, labelled anti-human Fc, gMFI
[23] = biological target: T3, human LILRB1 expressed on cells; test: flow cytometry, CHO-LILRB1 cells; remark: listed apart in the source
[24] = biological target: T4, human LILRB2 expressed on cells; test: flow cytometry, Jurkat-LILRB2 cells
[25] = biological target: T1, LILRB1-ECD-HIS (SinoBiological Cat #: …); test: BLI (Gator), RB1-ECD-his
[26] = biological target: T2, LILRB2-ECD-HIS (SinoBiological Cat #: …); test: SPR (Carterra), LILRB2-ECD-his
[27] = biological target: T13, LILRB5 expressed on 293T cells (UniProt O75023 24-590, limits assumed); test: flow cytometry on 293T cells transiently expressing LILRB5, APC anti-human Fc; gMFI as fold to IgG staining
T13 construct: whole, on cells; GFP-tagged, transient

[28] = biological target: T3, human LILRB1 expressed on cells; test: flow cytometry, CHO-LILRB1 cells; blocked ligand: APC HLA-G trimer tetramer
[29] = biological target: T3, human LILRB1 expressed on cells; test: flow cytometry, Jurkat-LILRB1 cells; blocked ligand: APC HLA-G trimer tetramer
[30] = biological target: T3, human LILRB1 expressed on cells; test: flow cytometry, Jurkat-LILRB1 cells
[31] = biological target: T3, human LILRB1 expressed on cells; test: flow cytometry, CHO-LILRB1 cells; remark: listed apart in the source

T3 sequence (Q8NHL6 other isoform, or with tags, fused parts or gaps limits assumed): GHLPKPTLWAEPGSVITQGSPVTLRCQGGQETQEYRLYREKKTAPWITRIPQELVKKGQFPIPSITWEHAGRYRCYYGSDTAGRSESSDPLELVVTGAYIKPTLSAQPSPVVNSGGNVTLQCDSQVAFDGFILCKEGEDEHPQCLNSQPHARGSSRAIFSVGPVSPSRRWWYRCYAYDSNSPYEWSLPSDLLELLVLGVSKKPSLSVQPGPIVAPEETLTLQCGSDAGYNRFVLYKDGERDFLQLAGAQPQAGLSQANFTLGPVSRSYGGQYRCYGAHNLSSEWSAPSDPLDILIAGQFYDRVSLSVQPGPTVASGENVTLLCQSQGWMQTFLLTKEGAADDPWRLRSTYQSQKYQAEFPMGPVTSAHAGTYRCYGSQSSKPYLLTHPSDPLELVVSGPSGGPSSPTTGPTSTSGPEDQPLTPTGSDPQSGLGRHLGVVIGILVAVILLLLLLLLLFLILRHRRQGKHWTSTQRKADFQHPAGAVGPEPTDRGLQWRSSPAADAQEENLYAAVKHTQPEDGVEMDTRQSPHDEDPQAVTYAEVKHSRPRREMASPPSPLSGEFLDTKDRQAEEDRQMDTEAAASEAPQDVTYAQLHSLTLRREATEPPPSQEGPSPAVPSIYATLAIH
T2 sequence (Q8N423 other isoform, or with tags, fused parts or gaps H02H H02H): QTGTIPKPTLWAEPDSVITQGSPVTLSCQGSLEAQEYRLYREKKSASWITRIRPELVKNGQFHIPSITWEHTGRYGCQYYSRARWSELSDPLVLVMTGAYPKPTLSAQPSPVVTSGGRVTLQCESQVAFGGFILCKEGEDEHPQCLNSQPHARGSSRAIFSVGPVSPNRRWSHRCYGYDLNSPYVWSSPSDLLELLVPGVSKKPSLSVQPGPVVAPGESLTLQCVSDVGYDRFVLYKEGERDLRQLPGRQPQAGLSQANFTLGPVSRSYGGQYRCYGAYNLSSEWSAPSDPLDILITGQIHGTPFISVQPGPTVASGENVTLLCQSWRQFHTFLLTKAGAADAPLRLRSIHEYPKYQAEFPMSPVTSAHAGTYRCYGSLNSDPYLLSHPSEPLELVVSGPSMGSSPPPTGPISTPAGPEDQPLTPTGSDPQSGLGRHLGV
T4 sequence (Q8N423 other isoform, or with tags, fused parts or gaps limits assumed): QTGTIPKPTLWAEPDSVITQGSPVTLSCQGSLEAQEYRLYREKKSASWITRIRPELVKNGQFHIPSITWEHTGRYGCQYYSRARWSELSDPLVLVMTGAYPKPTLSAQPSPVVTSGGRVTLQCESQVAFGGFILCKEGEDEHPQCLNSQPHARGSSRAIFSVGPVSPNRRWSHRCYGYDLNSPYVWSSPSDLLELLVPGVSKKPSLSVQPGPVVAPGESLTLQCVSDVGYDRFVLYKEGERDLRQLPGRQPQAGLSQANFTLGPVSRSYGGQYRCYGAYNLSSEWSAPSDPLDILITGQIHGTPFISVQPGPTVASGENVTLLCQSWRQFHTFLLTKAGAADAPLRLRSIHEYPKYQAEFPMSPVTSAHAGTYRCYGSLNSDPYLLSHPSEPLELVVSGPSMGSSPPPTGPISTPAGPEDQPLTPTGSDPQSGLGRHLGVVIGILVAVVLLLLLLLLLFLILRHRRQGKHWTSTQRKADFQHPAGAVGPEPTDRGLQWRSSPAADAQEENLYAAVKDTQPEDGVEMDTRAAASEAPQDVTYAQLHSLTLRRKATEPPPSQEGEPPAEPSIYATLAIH
T1 sequence (Q8NHL6 other isoform, or with tags, fused parts or gaps H02H H02H): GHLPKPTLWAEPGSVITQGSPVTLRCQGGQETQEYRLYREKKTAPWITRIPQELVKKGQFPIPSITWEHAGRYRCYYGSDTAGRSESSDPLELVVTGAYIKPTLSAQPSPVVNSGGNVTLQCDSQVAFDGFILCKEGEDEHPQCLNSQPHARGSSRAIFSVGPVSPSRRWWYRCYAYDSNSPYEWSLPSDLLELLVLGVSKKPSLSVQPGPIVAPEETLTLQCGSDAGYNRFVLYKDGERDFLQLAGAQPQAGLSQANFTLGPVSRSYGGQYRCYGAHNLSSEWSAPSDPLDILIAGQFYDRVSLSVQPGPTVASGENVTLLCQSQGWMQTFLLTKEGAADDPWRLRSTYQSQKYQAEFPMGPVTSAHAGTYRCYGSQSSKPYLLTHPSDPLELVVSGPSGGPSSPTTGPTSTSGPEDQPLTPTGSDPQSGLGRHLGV
T11 sequence (O75019 17-489): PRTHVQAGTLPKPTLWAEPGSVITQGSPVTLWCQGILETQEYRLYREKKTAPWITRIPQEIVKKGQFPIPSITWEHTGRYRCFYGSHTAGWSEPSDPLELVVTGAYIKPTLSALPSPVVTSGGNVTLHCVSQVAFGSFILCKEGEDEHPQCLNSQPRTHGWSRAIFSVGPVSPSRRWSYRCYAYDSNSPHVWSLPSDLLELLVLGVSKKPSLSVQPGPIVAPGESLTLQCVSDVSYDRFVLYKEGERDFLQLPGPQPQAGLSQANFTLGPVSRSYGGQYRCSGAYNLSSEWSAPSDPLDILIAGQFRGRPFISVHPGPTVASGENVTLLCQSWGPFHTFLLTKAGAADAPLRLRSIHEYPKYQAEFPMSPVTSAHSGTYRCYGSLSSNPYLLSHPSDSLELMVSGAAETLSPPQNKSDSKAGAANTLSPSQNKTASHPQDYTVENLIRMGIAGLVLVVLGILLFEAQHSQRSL
T7 sequence (P59901 24-499 limits assumed): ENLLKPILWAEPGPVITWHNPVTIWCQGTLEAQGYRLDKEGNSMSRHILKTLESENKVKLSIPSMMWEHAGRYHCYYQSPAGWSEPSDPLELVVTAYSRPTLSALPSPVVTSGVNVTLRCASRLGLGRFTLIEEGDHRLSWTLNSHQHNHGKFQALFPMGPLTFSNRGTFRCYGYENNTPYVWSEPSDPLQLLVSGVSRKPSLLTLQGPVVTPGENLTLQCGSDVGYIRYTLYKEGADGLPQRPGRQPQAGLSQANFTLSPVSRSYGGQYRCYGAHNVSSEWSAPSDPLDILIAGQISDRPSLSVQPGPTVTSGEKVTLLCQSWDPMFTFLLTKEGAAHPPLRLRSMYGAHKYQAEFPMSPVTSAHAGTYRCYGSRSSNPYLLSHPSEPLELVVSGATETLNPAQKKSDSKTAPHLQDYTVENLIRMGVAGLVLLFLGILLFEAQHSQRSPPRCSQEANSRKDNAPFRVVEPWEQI
T13 sequence (O75023 24-590 limits assumed): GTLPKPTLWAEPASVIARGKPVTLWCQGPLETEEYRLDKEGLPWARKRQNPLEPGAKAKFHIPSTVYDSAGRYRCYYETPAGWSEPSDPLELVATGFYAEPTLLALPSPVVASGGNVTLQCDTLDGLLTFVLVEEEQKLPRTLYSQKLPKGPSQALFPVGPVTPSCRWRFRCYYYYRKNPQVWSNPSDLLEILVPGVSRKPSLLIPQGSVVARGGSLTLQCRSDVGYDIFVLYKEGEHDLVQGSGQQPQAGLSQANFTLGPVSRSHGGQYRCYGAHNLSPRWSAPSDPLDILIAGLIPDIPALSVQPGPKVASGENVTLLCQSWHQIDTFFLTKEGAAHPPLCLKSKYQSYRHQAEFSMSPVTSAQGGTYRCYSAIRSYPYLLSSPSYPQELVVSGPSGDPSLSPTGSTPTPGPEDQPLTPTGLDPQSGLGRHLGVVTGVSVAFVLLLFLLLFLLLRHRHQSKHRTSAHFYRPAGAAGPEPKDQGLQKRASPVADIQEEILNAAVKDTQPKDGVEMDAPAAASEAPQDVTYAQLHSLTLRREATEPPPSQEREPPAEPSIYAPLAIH
T12 sequence (Q6PI73 24-481): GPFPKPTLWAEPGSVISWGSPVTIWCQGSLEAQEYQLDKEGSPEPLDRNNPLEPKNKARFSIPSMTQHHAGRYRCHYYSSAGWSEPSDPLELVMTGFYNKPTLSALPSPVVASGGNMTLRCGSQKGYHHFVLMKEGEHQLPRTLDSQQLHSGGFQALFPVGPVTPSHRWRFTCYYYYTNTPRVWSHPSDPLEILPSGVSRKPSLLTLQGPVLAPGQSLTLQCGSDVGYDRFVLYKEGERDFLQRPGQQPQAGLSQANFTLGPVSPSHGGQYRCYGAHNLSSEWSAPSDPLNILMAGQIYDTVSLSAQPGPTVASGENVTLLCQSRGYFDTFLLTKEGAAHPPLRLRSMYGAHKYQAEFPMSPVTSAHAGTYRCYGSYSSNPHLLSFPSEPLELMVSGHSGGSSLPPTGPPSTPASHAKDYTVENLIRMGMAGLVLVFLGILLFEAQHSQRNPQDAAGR
T10 sequence (Q8N149 24-483 limits assumed): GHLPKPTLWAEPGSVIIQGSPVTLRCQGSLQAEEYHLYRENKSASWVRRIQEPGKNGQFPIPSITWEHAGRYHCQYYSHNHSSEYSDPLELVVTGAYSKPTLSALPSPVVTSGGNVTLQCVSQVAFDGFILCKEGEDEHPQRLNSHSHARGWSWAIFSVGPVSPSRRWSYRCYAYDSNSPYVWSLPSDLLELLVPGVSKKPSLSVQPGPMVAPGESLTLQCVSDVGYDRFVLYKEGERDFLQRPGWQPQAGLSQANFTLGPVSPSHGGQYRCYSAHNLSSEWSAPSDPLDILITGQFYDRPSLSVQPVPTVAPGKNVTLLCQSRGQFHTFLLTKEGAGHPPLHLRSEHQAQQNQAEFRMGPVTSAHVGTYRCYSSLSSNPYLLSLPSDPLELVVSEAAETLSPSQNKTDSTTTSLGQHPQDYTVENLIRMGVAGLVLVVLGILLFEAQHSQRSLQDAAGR
T6 sequence (A6NI73 42-299 limits assumed): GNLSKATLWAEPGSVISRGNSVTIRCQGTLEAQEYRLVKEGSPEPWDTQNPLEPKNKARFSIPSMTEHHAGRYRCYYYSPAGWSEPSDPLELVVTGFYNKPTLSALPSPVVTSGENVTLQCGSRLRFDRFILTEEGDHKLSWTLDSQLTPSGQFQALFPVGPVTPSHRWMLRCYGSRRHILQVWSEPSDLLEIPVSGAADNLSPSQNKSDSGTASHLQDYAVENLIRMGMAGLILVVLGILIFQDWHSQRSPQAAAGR

binding result [1]: binds | binding result [2]: binds
B2: Anti-LILRB1/2 antibody Hz73D1.v1 (antibody, human IgG1, kappa, N297G, V domains shown)
VH: QVQLVQSGAEVKKPGASVKVSCKASGYTFTDYYINWVRQAPGQGLEWMGNVNPNDGGTTYNQKFKGRVTMTTDTSTSTAYMELRSLRSDDTAVYYCARREIYFYGTIYYYAMDYWGQGTLVTVSS
VL: DIQLTQSPSFLSASVGDRVTITCRASESVDYYGNSFMYWYQQKPGKAPKLLIYFASNLESGVPSRFSGSGSGTEFTLTISSLQPEDFATYYCQQNNEDPWTFGGGTKVEIKR
notes: also called NGM707

binding result [2]: binds
B3: Anti-LILRB2 antibody J-19.H1 (antibody, human IgG4 S228P, kappa, V domains shown)
VH: QVTLKESGPGILQPSHTLSLTCSFSGFSLNTYAMGVSWIRQPSGKGLEWLASIWWNGNKYNNPSLKSRLTVSKDTSNNQAFLKVTSVDTADTATYYCAHSRIIRFTDYVMDAWGQGASVTVSS
VL: DIQMTQSPASLSTFLGEPVTIECRASEDIYNDLAWYQQKPGKSPQLLIYNANSLHTGVPSRFSGSGSGTQYSLKINSLQSEDVASYFCQQYYDYPLTFGSGTKLEIKR
notes: also called JTX-8064

Kd [3]: 14.7 nM | Kd [4]: 2.08 nM | EC50 [7]: 0.093 µg/mL | gMFI (max) [7]: 26800 | EC50 (read off the curve) [31]: ~0.09 µg/mL | EC50 [15]: 0.033 µg/mL | gMFI (max) [15]: 16300
B5: #1 (antibody, human IgG1, V domains shown)
VH: EVQLQQSGPELVKPGASVKMSCKASGYTFTRYVMHWVKQKPGQGLEWIGYINPNNDGTKYNEKFKGKVTLTSDKSSSTAYMELSSLTSEDSAVYYCARGDLEILPYYDHARNAMDYWGQGTSVTVSS
VL: DIVMTQSPASQSASLGESVIITCRASGNIHNYLAWYQQKQGKSPQLLVYNAKTLADGVPSRFSGSGSGTQYSLKINSLQPEDFGTYYCQHFWSSPPTFGGGTKLELK
notes: also called D2M002-001

Further lines, the binder ahead of its results:

B1: Anti-LILRB1 antibody 15G8 (antibody, human IgG4 S228P, kappa)
heavy: not shown
light: DIQMTQSPSSLSASVGDRVTITCRTSQDISNYLNWYQQKPGKAVKLLISYTSRLHSGVPSRFSGSGSGTDYTLTISSLQPEDFATYYCQQGNTLPTFGQGTKLEIKRTVAAPSVFIFPPSDEQLKSGTASVVCLLNNFYPREAKVQWKVDNALQSGNSQESVTEQDSKDSTYSLSSTLTLSKADYEKHKVYACEVTHQGLSSPVTKSFNRGEC
notes: also called BND-22
binding result [1]: binds

B4: D2M002-026 (antibody, V domains shown)
VH: QVQLQQPGAELMKPGASVKISCKATGYTFSSYWIEWVKQRPGHGLEWIGEILPGDGSTNYNAKFKGQATFTADTSSNTAYMQFSSLTSEDSAVYYCARSGAGGYDSGAFAYWGQGTLVTVSS
VL: DIVLTQSPASLAVSLGQRATISCRASESVDTYGNSFMHWYQQKPGQPPKLLVYRTSNLESGIPARFSGSGSGTDFTLTINPVEADDVATYYCQQSNEDPWTFGGGTKLEIK
notes: Hit; also called clone #26
Kd [3]: 0.737 nM | Kd [4]: 0.0286 nM | EC50 [5]: 0.4 µg/mL | MaxMFI [5]: 113000 | IC50 [6]: 0.023 µg/mL | EC50 [7]: 0.818 µg/mL | gMFI (max) [7]: 43200 | EC50 [8]: 0.18 µg/mL | MaxMFI [8]: 31800 | Kd [9]: 0.103 nM | EC50 (read off the curve) [10]: ~0.4 µg/mL | binding result [11]: no binding (tested: 5 µg/mL) | binding result [12]: binds | EC50 (read off the curve) [13]: ~0.2 µg/mL | binding result [14]: no binding (tested: 5 µg/mL) | EC50 [15]: 2.63 µg/mL | gMFI (max) [15]: 35500 | binding result [16]: no binding (tested: 5 µg/mL) | Kd [17]: 0.382 nM | koff [17]: 2.79e-05 s⁻¹ | kon [17]: 73100 M⁻¹ s⁻¹ | binding result [18]: no binding (tested: 5 µg/mL) | binding result [19]: no binding (tested: 5 µg/mL) | EC50 [20]: 0.0877 µg/mL | MaxMFI [20]: 28100 | binding result [21]: no binding (tested: 5 µg/mL) | EC50 (read off the curve) [22]: ~0.09 µg/mL | EC50 [23]: 1.02 µg/mL | EC50 [24]: 0.106 µg/mL | Kd [25]: 0.689 nM | Kd [26]: 0.0608 nM | koff [26]: 4.53e-05 s⁻¹ | kon [26]: 745000 M⁻¹ s⁻¹ | binding result [27]: no binding (tested: 5 µg/mL) | IC50 [28]: 0.197 µg/mL | IC50 [29]: 0.34 µg/mL | EC50 [30]: 1.94 µg/mL
